The record followed here is publication PMC11741006 (RSC Chemical Biology, 2025).

One test addresses T1, MDMX (1–134) (UniProt O15151 1-134).
T1 construct: MDMX, residues 1-134; the methods may stand in the ESI; also called Mouse double minute X homolog
T1 sequence (looked up): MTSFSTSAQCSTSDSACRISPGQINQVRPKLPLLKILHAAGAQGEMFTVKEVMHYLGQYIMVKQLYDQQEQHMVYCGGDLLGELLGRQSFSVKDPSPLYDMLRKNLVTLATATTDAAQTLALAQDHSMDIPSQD
Description: fluorescence polarisation; direct binding; 10 nM FITC-labelled peptide incubated with varying concentrations of protein (10 μM to 9 pM), FP read after 3 h; n = 3. The conditions noted are these: both partners purified.

The target in the next test is T2, MDM2 (1–138) (UniProt Q00987 1-138).
T2 construct: MDM2, residues 1-138; the methods may stand in the ESI; also called Mouse double minute 2 homolog
Described as above. The conditions noted are these: both partners purified.

Starred links: 1 amine or outer side, 2 acyl side, 3 side chain; linkers in the order of their positions; H or OH if unused. Positions of bridges follow the written chain, without caps; N, C: chain ends. Non-standard residues stand in square brackets, D forms with d. *: point of attachment. FITC = O=C1OC2(c3ccc(O)cc3Oc3cc(O)ccc32)c2ccc(NC(=S)*)cc21; S7 = C[C@@](CCCCCC=[*:3])(N[*:1])C(=O)[*:2]; R8 = C=CCCCCCC[C@@](C)(N)C(=O)O; Cba = N[C@@H](CC1CCC1)C(=O)O; S5 = C=CCCC[C@](C)(N)C(=O)O; Ahx = NCCCCCC(=O)O

The term Kd denotes the constant that tells how readily two partners part at equilibrium. Higher therefore signals a looser complex.

T2 sequence (Q00987 1-138): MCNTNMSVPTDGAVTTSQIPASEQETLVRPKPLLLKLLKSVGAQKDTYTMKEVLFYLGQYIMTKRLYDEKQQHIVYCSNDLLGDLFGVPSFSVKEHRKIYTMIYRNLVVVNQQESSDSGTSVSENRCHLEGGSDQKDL

As for {FITC-Ahx}-LTF[R8]EYWAQ[Cba][S5]SAA-NH2 (staple 4-11; also: trans alkene isomer) [trans-3FITC (ATSP-7041)], the affinity with MDMX (1–134), expressed as Kd, was 7.86 ± 0.15 nM. On to {FITC-Ahx}-LTA[S7]EYWAQ[Cba][S7]SAA-NH2 (staple 4-11) [5FITC], for which the Kd was determined as 1120 ± 252 nM with MDMX (1–134) and 3680 ± 151 nM in the test with MDM2 (1–138). Turning to {FITC-Ahx}-LTF[R8]EYWAQ[Cba][S5]SAA-NH2 (staple 4-11; also: cis alkene isomer) [cis-2FITC (ATSP-7041)], in the test with MDMX (1–134), the affinity, expressed as Kd, was 8.42 ± 0.09 nM.

As for {FITC-Ahx}-LTF[S7]EYWAQ[Cba][S7]SAA-NH2 (bridge 4-11; not fully specified (bridges)) [4FITC], the dissociation constant Kd was found to be 203 ± 54 nM with MDMX (1–134) and 1.39 ± 0.08 nM in the test with MDM2 (1–138).
